Test results as given in US20220185894A1 (F STAR THERAPEUTICS, published 2022).

T1: cynomolgus LAG-3 expressed on cells (cynomolgus monkey, UniProt P18627 24-525 (human entry))
T1 construct: also called cLAG-3; cyno LAG-3
T1 chain: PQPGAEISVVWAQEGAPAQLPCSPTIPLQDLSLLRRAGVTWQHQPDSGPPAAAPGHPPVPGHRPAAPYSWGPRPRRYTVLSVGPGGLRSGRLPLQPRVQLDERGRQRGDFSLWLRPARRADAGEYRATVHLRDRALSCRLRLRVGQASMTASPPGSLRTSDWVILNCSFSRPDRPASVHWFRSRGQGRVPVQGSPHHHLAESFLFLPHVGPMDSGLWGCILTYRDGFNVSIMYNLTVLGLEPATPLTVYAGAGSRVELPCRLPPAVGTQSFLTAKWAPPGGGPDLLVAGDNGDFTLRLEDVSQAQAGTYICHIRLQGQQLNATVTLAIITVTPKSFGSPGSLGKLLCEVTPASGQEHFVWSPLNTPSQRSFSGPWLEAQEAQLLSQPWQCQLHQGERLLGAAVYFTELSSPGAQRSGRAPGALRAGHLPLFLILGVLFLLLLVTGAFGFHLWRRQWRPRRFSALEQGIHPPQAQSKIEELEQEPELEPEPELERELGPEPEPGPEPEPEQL

T2: human FcγRIIa (R&D Systems, 1330-CD) (human, UniProt P12318 36-218, limits assumed)
T2 construct: Bought recombinant protein
T2 sequence (looked up): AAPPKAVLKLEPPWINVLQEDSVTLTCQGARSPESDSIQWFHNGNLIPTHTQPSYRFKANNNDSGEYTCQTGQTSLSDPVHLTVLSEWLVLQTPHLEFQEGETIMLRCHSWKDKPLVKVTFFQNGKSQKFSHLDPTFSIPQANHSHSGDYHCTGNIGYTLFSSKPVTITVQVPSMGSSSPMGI

T3: human FcγRIIb/c (R&D Systems, 1875-CD) (human, UniProt P31994 46-217)
T3 construct: Bought recombinant protein
T3 sequence (looked up): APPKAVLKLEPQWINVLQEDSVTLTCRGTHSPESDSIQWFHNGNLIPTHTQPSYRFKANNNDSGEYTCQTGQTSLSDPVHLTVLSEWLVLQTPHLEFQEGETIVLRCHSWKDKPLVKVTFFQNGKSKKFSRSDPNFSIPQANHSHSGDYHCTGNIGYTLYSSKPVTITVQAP

T4: recombinant Fc-tagged human LAG-3 (R&D Systems, 2319-L3-050) (human, UniProt P18627 23-450)
T4 construct: Bought protein; also called LAG-3 Fc; human LAG-3-Fc; not shown: Fc tag of the bought fusion protein
T4 sequence: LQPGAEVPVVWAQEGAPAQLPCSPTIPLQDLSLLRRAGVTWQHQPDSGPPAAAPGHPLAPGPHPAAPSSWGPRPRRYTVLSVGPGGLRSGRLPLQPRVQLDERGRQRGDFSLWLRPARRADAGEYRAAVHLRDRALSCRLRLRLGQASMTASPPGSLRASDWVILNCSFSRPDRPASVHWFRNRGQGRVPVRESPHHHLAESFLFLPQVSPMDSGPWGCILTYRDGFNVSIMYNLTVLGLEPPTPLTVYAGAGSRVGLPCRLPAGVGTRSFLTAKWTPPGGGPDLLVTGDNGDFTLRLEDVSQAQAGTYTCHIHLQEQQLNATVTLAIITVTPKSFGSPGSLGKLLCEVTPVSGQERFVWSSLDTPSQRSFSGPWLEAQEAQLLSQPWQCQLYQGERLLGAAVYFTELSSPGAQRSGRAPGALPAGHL

T5: human LAG-3 expressed on cells (human, UniProt P18627 23-525)
T5 construct: also called hLAG-3; DO11.10 hLAG-3
T5 sequence: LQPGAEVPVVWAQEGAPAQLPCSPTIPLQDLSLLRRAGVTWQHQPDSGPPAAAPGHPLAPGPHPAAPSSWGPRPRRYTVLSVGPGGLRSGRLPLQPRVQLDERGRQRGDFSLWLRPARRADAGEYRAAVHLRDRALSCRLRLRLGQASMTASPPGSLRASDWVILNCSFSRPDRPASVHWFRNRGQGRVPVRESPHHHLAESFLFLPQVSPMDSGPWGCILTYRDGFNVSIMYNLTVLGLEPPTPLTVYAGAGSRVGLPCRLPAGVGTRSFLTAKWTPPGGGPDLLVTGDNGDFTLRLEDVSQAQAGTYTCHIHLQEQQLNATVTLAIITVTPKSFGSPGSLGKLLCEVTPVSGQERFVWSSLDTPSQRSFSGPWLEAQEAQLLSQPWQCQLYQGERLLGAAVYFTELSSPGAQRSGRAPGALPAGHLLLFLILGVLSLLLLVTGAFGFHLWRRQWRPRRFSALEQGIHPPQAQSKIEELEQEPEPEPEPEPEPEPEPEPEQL


Legend:
[1] = biological target: T1, cynomolgus LAG-3 expressed on cells; assay: flow cytometry on DO11.10 cells expressing cynomolgus LAG-3
Experimental: DO11.10:LAG-3 cell suspensions were prepared in PBS+2% BSA (Sigma, A7906) and seeded at […] with 50 μl/well in V-bottomed 96-well plates (Costar, 3897). […] The plates were washed and 100 μl/well of secondary antibody (anti-human Fc-488 antibody, Jackson ImmunoResearch, 109-546-098) diluted 1:1000 in PBS+2% BSA was then added and incubated for 30 mins at 4° C. in the dark. The plates were washed and resuspended in 100 μl of PBS containing DAPI (Biotium, 40043) at […]. The plates were read using Canto II flow cytometer (BD Bioscience). The dead cells were excluded and the fluorescence in the FITC channel (488 nm/530/30) was measured. The data was fit using log (agonist) vs response in GraphPad Prism Software.

[2] = biological target: T2, human FcγRIIa (R&D Systems, 1330-CD); assay: SPR, Biacore T200; FcγR immobilised, 500 µg/ml injected
Experimental: (§1) The introduction of the LALA mutation in the CH2 domain of human IgG1 is known to reduce Fc γ receptor binding (Bruhns, P., et al. (2009); and Xu, D. et al. (2000)). […] The human FcγR binding assay was performed on a Biacore T200 instrument (GE Healthcare) using the Fcabs in the mock mAb² format. […] For each immobilized chip a flow cell was left blank for background subtraction. FcγR were immobilized using a concentration of 5 μg/ml in sodium acetate pH5 (ForteBio, 18-1069) and injected at a flow rate of 10 μl/min in 15 second cycles until the required immobilization level was reached.
(§2) The flow cells were regenerated by injecting 10 mM sodium hydroxide (VWR, 28244.262) at a flow rate of 100 μl/min for 30 seconds. The data analysis was performed with BiaEvaluation software version 3.2 RC1 by double referencing against the blank flow cell (without immobilized FcγR) and subtracting a buffer cycle from test mAb².

[3] = biological target: T3, human FcγRIIb/c (R&D Systems, 1875-CD); assay: as above
Experimental: as §1, §2

[4] = biological target: T6, human FcγRI (R&D Systems, 1257-FC) (human, UniProt P12314 16-288); assay: SPR, Biacore T200; FcγR immobilised, 200 µg/ml injected
T6 construct: Bought recombinant protein
T6 sequence (P12314 16-288 limits assumed): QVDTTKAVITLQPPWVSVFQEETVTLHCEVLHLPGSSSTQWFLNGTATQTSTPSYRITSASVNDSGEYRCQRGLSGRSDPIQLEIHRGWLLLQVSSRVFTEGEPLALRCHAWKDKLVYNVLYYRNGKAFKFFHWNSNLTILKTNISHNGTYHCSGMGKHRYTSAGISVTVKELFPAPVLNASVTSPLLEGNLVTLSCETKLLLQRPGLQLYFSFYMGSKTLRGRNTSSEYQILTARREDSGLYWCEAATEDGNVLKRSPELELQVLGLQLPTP
Experimental: as §1, §2

[5] = biological target: T7, human PD-L1 Fc (R&D Systems, 156-B7) (human, UniProt Q9NZQ7 19-239); assay: SPR, BIAcore T200; mAb2 captured on Protein L, PD-L1 Fc injected
T7 construct: Bought protein; not shown: Fc tag of the bought fusion protein
T7 sequence (Q9NZQ7 19-239 limits assumed): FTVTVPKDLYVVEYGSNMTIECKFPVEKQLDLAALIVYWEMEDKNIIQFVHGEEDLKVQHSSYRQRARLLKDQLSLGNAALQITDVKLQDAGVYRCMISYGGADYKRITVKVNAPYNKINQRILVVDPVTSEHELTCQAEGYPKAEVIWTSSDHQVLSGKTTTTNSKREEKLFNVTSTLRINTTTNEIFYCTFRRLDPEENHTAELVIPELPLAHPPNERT

[6] = biological target: T4, recombinant Fc-tagged human LAG-3 (R&D …); assay: SPR, BIAcore T200; mAb2 captured on Protein L, human LAG-3 Fc injected
[7] = biological target: T1, cynomolgus LAG-3 expressed on cells; assay: flow cytometry on HEK cells expressing cynomolgus LAG-3
Experimental: (§3) The affinity of the mAb² (all containing the LALA mutation) for cell expressed human or cynomolgus LAG-3 was determined using flow cytometry. HEK cells expressing human or cynomolgus LAG-3 grown in DMEM (Life Technologies, 61965-026) containing 10% FBS (Life Technologies, 10270-1-6), 100 μg/ml Hygromycin B (Melford Laboratories Ltd, Z2475), 15 μg/ml Blasticidin (Melford Laboratories Ltd, B1105) and 1 μg/ml Doxycyclin (Sigma, D9891) were detached from tissue culture flasks using cell dissociation buffer (Life Technologies, 13151-014) and seeded in V-bottom 96-well plates (Costar, 3897) at 2×10⁵ cells/well. The plates were centrifuged at 1500 rpm for 3 min at 4° C. to pellet the cells. A dilution series of the mAb² (or control mAb) were incubated with the cells in a 100 μl volume for 1 h at 4° C. The plates were washed and secondary antibody (Anti-human Fc-488, Jackson ImmunoResearch, 109-546-098) was diluted 1:1000 in PBS and 100 μl was added to the cells for 30 min at 4° C. (plates were kept in the dark). The plates were washed and then cells were resuspended in 100 μl PBS containing 1 μg/ml DAPI (Biotium, 40043). The plates were read using Canto II flow cytometer (BD Bioscience). Dead cells were excluded and the fluorescence in the FITC channel (488 nm/530/30) was measured. The data was fit using log (agonist) vs response in GraphPad Prism Software. The plates were read on a BD FACSCanto II cytometer (BD Biosciences) and the data analysed using FlowJo.

[8] = biological target: human PD-L1 expressed on cells (human, UniProt Q9NZQ7 19-290); assay: cell-based or functional assay
human PD-L1 expressed on cells, sequence (Q9NZQ7 19-290 limits assumed): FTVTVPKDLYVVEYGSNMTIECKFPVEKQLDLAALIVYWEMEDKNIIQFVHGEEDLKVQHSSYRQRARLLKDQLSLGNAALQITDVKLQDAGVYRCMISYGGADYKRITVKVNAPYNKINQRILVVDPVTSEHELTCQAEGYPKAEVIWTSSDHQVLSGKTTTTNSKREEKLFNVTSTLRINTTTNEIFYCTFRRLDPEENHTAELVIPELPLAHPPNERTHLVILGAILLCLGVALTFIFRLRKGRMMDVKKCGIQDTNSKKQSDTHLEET

[9] = biological target: T5, human LAG-3 expressed on cells; assay: flow cytometry on HEK cells expressing human LAG-3
Experimental: as §3

| EC50 [1] | binding response at end of association (RU) [2] | binding response at end of association (RU) [3] | binding response at end of association (RU) [4] | Kd [5] | koff [5] | kon [5] | Kd [6] | koff [6] | kon [6] | EC50 [7] | fold better binding (EC50) than control antibody 25F7 [7] | Maximal IL2 release calculated as % ctrl (84G09 + 25F7) [8] | EC50 [9] | Binder |
| --- | --- | --- | --- | --- | --- | --- | --- | --- | --- | --- | --- | --- | --- | --- |
| 0.5 nM | -10.7 RU | -9.2 RU | -0.3 RU | – | – | – | – | – | – | – | – | – | – | anti-human LAG-3/FITC mock mAb2 FS18-7-78/4420 comprising LALA mutation (bispecific antibody, human IgG1, kappa, L234A L235A, also called FS18-7-78/4420LALA; FS18-7-78 in mock mAb2 format) heavy: EVKLDETGGGLVQPGRPMKLSCVASGFTFSDYWMNWVRQSPEKGLEWVAQIRNKPYNYETYYSDSVKGRFTISRDDSKSSVYLQMNNLRVEDMGIYYCTGSYYGMDYWGQGTSVTVSSASTKGPSVFPLAPSSKSTSGGTAALGCLVKDYFPEPVTVSWNSGALTSGVHTFPAVLQSSGLYSLSSVVTVPSSSLGTQTYICNVNHKPSNTKVDKKVEPKSCDKTHTCPPCPAPEAAGGPSVFLFPPKPKDTLMISRTPEVTCVVVDVSHEDPEVKFNWYVDGVEVHNAKTKPREEQYNSTYRVVSVLTVLHQDWLNGKEYKCKVSNKALPAPIEKTISKAKGQPREPQVYTLPPSWDEPWGEDVSLTCLVKGFYPSDIAVEWESNGYKEENYKTTPPVLDSDGSFFLYSKLTVPYDRWVWPDEFSCSVMHEALHNHYTQKSLSLSPG light: DVVMTQTPLSLPVSLGDQASISCRSSQSLVHSNGNTYLRWYLQKPGQSPKVLIYKVSNRFSGVPDRFSGSGSGTDFTLKISRVEAEDLGVYFCSQSTHVPWTFGGGTKLEIKRTVAAPSVFIFPPSDEQLKSGTASVVCLLNNFYPREAKVQWKVDNALQSGNSQESVTEQDSKDSTYSLSSTLTLSKADYEKHKVYACEVTHQGLSSPVTKSFNRGEC |
| – | – | – | – | 1 nM | 0.0001 s⁻¹ | 100000 M⁻¹ s⁻¹ | 0.029 nM | 0.00014 s⁻¹ | 4.8e+06 M⁻¹ s⁻¹ | 24.8 nM | ≥ 2 fold | 64.4% | 2.53 nM | anti-human LAG-3/PD-L1 mAb2 FS18-7-78/84G09 with LALA mutation (bispecific antibody, human IgG1, kappa, L234A L235A, also called FS18-7-78/84G09 LALA; FS18-7-78/84G09LALA) heavy: EVQLVESGGGLVQPGRSLRLSCAASGFTFDDYAMHWVRQTPGKGLEWVSGISWKSNIIGYADSVKGRFTISRDNAKNSLYLQMNSLRAEDTALYYCARDITGSGSYGWFDPWGQGTLVTVSSASTKGPSVFPLAPSSKSTSGGTAALGCLVKDYFPEPVTVSWNSGALTSGVHTFPAVLQSSGLYSLSSVVTVPSSSLGTQTYICNVNHKPSNTKVDKKVEPKSCDKTHTCPPCPAPEAAGGPSVFLFPPKPKDTLMISRTPEVTCVVVDVSHEDPEVKFNWYVDGVEVHNAKTKPREEQYNSTYRVVSVLTVLHQDWLNGKEYKCKVSNKALPAPIEKTISKAKGQPREPQVYTLPPSWDEPWGEDVSLTCLVKGFYPSDIAVEWESNGYKEENYKTTPPVLDSDGSFFLYSKLTVPYDRWVWPDEFSCSVMHEALHNHYTQKSLSLSPG light: DIQMTQSPSSLSASVGDRVTITCRASQSISSYLNWYQQKPGKAPKPLIYVASSLQSGVPSSFSGSGSGTDFTLTISSLQPEDFATYYCQQSYSNPITFGQGTRLEIKRTVAAPSVFIFPPSDEQLKSGTASVVCLLNNFYPREAKVQWKVDNALQSGNSQESVTEQDSKDSTYSLSSTLTLSKADYEKHKVYACEVTHQGLSSPVTKSFNRGEC |
